The supplement of paper PMC10065799, “High-throughput profiling of sequence recognition by tyrosine kinases and SH2 domains using bacterial peptide display” (eLife, 2023)

Experiments:
AncSZ = assay: phosphorylation enrichment, bacterial display (enrichment ratio); higher = better substrate or ligand; peptides without Tyr show the background
EPHB1 = EPHB1 (UniProt P54762); assay: as above
EPHB2 = EPHB2 (UniProt P29323); assay: as above
FGFR1 = FGFR1 (UniProt P11362); assay: as above
FGFR3 = FGFR3 (UniProt P22607); assay: as above
Fer (mouse) = assay: as above
Fes = Fes (UniProt P07332); assay: as above
Fyn = Fyn (UniProt P06241); assay: as above
Hck = Hck (UniProt P08631); assay: as above
Jak2 = Jak2 (UniProt O60674); assay: as above
MERTK = MERTK (UniProt Q12866); assay: as above
c-Abl (mouse) = assay: as above
c-Src = assay: as above
Grb2 SH2 = Grb2 SH2 (UniProt P62993); assay: SH2 binding enrichment of the phosphorylated peptide, bacterial display (enrichment ratio); higher = better substrate or ligand; peptides without Tyr show the background
SHP2-C SH2 = assay: as above
c-Src SH2 = assay: as above
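For SH2 binding enrichment of the phosphorylated peptide, bacterial display in this document: peptide library displayed on the E. coli surface as eCPX fusions, selected cells deep-sequenced, score is each peptide's frequency after selection divided by its frequency in the input.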
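For phosphorylation enrichment, bacterial display in this document: 11-residue human phosphosite peptides and single-mutation variants displayed on the E. coli surface, counted by deep sequencing, each peptide's frequency after selection divided by its frequency in the unselected input library; frequency after pTyr selection over input frequency; kinase dosed for 20-30% of maximal phosphorylation in three min.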

Jak2, sequence (O60674 whole entry, looked up): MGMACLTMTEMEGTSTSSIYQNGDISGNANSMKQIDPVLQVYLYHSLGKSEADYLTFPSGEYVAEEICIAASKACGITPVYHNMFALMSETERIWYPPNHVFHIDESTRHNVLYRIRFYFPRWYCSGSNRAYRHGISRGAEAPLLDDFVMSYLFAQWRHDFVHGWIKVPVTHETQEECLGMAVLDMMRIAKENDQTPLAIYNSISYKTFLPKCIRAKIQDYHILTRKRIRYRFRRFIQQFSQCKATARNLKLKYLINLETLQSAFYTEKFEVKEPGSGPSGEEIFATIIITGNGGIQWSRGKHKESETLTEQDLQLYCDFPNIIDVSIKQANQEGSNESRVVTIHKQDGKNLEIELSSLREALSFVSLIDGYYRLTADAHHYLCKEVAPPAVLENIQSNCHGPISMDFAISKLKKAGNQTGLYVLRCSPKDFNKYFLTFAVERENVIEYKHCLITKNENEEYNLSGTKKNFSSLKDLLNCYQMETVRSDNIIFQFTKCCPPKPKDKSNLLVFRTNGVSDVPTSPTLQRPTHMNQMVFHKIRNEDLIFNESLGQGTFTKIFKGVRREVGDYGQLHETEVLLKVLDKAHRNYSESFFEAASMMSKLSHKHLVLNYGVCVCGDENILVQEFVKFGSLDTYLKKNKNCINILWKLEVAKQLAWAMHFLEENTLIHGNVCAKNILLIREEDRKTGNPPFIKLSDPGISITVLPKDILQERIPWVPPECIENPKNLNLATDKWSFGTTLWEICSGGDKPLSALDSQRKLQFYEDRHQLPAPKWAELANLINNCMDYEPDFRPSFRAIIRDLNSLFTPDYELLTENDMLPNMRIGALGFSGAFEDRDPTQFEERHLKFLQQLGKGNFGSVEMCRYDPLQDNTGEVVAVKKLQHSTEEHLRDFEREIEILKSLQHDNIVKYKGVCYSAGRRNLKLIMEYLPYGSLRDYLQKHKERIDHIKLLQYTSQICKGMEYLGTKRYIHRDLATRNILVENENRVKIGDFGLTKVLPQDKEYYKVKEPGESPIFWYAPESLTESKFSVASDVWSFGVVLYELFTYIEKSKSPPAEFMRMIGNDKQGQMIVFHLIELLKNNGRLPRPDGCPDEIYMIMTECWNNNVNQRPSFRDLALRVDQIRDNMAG
Hck, sequence (P08631 whole entry, looked up): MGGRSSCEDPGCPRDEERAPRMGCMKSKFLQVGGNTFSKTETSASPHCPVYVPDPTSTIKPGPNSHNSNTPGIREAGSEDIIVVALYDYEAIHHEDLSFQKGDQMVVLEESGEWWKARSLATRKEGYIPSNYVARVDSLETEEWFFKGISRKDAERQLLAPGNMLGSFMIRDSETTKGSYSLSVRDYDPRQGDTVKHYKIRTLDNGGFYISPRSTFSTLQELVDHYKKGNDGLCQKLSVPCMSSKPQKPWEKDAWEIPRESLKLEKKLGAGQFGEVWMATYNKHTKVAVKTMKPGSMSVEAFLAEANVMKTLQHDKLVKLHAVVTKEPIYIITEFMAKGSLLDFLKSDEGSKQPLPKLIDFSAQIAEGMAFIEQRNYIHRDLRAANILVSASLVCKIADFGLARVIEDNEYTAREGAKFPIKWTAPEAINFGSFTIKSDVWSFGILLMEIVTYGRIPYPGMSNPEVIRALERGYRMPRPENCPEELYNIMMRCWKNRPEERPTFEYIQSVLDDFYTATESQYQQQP
FGFR3, sequence (P22607 whole entry, looked up): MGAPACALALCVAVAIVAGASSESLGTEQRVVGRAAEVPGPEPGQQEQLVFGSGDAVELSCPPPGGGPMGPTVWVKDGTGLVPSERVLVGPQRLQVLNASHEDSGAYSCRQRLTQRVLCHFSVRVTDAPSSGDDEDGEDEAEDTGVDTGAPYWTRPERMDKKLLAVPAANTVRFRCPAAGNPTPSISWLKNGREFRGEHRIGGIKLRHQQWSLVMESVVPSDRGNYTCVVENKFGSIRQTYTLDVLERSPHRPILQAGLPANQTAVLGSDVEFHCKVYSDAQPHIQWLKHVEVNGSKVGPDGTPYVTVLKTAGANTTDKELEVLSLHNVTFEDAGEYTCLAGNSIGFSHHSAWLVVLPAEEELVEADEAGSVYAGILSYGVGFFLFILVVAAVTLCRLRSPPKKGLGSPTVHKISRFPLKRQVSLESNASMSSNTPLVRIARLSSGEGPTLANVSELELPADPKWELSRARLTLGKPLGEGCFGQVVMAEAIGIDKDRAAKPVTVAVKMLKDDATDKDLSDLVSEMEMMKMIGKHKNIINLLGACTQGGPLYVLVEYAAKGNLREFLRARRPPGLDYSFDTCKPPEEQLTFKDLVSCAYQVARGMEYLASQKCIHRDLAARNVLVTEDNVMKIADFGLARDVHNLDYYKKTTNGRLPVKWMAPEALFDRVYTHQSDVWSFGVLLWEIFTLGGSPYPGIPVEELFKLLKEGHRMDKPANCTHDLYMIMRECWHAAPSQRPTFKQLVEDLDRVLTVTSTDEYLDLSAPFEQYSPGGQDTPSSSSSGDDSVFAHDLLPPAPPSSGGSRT
MERTK, sequence (Q12866 whole entry, looked up): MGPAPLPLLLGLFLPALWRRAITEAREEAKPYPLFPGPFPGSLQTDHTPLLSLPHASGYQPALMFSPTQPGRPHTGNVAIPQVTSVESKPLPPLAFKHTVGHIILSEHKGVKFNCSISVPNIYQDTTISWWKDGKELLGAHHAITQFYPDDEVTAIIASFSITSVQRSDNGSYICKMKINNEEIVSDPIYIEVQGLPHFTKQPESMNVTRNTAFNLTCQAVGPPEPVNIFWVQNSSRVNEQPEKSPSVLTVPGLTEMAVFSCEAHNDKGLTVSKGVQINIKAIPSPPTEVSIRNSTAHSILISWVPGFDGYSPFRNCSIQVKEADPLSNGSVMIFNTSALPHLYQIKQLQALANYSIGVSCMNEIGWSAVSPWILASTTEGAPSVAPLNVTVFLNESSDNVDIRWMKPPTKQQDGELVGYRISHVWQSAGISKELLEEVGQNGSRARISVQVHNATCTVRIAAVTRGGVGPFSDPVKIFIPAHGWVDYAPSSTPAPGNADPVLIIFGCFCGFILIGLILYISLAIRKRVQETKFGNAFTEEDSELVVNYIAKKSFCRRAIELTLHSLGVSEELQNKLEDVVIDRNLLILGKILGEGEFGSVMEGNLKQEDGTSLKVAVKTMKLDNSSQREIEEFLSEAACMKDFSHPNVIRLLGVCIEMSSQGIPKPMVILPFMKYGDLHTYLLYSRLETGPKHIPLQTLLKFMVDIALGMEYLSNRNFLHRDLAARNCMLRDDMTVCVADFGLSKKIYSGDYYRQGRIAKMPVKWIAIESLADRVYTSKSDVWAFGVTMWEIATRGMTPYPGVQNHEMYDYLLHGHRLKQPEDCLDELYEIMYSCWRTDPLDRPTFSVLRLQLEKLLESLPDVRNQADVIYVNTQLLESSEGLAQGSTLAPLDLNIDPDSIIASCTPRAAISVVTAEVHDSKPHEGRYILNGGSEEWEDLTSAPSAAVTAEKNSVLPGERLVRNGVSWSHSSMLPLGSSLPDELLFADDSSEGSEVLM
EPHB2, sequence (P29323 whole entry, looked up): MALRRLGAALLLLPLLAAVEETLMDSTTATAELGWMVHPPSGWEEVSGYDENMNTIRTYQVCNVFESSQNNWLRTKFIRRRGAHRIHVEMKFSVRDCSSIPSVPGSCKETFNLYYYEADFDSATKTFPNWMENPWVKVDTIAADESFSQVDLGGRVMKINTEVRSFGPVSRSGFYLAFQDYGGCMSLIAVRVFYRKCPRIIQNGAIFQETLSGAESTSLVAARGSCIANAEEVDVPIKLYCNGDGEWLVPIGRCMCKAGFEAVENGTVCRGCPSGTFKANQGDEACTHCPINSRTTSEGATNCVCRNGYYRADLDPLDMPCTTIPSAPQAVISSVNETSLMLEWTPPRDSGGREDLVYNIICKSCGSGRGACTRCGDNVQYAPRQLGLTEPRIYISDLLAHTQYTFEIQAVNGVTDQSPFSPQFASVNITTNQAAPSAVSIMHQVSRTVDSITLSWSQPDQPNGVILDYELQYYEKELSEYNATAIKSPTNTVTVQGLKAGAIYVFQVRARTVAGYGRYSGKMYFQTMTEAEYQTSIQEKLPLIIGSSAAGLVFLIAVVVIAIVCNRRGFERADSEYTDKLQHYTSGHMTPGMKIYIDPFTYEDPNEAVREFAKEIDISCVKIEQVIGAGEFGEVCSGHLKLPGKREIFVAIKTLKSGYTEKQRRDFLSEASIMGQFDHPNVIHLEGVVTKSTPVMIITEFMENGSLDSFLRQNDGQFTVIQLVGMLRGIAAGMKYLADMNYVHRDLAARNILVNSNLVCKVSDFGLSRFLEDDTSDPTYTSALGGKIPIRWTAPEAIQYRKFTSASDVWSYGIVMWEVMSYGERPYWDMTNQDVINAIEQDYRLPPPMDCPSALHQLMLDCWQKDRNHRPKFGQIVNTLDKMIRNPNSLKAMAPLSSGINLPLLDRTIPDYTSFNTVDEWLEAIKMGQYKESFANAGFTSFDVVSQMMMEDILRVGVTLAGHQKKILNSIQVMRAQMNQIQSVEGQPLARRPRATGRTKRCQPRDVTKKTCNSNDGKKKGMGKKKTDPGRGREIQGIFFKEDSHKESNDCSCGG
Fyn, sequence (P06241 whole entry, looked up): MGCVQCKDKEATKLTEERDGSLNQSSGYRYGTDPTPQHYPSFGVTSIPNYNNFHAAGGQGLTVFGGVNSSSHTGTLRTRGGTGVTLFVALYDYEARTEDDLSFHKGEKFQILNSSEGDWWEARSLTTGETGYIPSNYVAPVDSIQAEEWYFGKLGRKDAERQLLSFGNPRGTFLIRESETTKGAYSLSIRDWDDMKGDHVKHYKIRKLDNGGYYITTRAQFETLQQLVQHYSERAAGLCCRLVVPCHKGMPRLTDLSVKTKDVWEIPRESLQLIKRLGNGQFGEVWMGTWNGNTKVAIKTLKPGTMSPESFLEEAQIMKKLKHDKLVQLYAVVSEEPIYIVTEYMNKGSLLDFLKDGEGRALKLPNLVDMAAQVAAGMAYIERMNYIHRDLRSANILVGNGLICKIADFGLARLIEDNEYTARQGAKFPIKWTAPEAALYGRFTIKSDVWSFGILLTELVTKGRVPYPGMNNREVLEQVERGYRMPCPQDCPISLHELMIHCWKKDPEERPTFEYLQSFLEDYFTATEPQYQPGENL

Sequence | SH2 binding enrichment (Grb2 SH2) | SH2 binding enrichment (SHP2-C SH2) | SH2 binding enrichment (c-Src SH2) | phosphorylation enrichment (AncSZ) | phosphorylation enrichment (EPHB1) | phosphorylation enrichment (EPHB2) | phosphorylation enrichment (FGFR1) | phosphorylation enrichment (FGFR3) | phosphorylation enrichment (Fer (mouse)) | phosphorylation enrichment (Fes) | phosphorylation enrichment (Fyn) | phosphorylation enrichment (Hck) | phosphorylation enrichment (Jak2) | phosphorylation enrichment (MERTK) | phosphorylation enrichment (c-Abl (mouse)) | phosphorylation enrichment (c-Src)
EIIPFYGMSSF [FNDC3B_Y175_T179S_YF] | 0.652 | 0.592 | 4.4 | 1.06 | 0.764 | 0.916 | 0.497 | 0.786 | 1.46 | 0.995 | 1.06 | 1.15 | 0.772 | 1.54 | 0.865 | 0.822
PSDPSYEDMRE [BMPR1A_Y467] | 0.832 | 0.324 | 1.12 | 2.49 | 0.901 | 0.495 | 0.758 | 1.27 | 1.26 | 1.59 | 0.848 | 1.28 | 1.45 | 0.504 | 0.831 | 0.534
IFHENYNAGTF [CFI_Y421_YF] | 0.869 | 0.684 | 0.479 | 0.612 | 0.36 | 0.388 | 0.473 | 0.465 | 0.435 | 0.647 | 0.461 | 0.417 | 0.615 | 0.415 | 0.578 | 0.456
DGQVNYEGFVQ [CALM1_Y139_E141G] | 0.659 | 0.467 | 0.586 | 0.996 | 1.31 | 1.01 | 0.496 | 0.724 | 0.793 | 1.07 | 0.512 | 0.553 | 1.04 | 0.453 | 1.19 | 0.603
RLLVVYPWTKR [HBB_Y36_Q40K] | 0.951 | 0.812 | 0.447 | 0.735 | 0.418 | 0.678 | 0.694 | 0.613 | 0.45 | 0.829 | 0.485 | 0.547 | 0.475 | 0.612 | 0.602 | 0.583
LFEDCYLLGTS [ASS1_Y87_R86C_YF] | 1.24 | 0.924 | 0.647 | 2.1 | 0.572 | 0.716 | 0.895 | 1.15 | 0.752 | 1.5 | 1.01 | 0.58 | 1.39 | 0.442 | 1.17 | 1.6
ARAHKYHGGGG [HBB_Y146_L142R] | 1.39 | 0.799 | 0.902 | 0.384 | 0.246 | 0.273 | 0.324 | 0.371 | 0.28 | 0.443 | 0.312 | 0.302 | 0.379 | 0.276 | 0.474 | 0.312
AIIEEYLHLSD [EIF4G1_Y1253_N1257S] | 0.749 | 0.752 | 0.561 | 1.24 | 0.714 | 0.698 | 0.592 | 0.838 | 0.6 | 1.4 | 0.635 | 0.655 | 1.19 | 0.515 | 0.885 | 0.458
FPPDGYSRHFE [CTNND1_Y213_YF] | 0.818 | 0.738 | 0.424 | 0.606 | 0.363 | 0.373 | 0.398 | 0.603 | 0.349 | 0.676 | 0.435 | 0.408 | 0.62 | 0.372 | 0.493 | 0.472
EQYELHCEMGS [CBL_Y371_Y371H] | 0.815 | 0.859 | 0.611 | 1.33 | 0.682 | 0.63 | 0.538 | 0.818 | 0.915 | 1.18 | 0.491 | 0.498 | 1.03 | 0.476 | 0.82 | 0.61
EIVFVYVKKRS [DNAI2_Y7_YF] | 0.995 | 0.833 | 0.516 | 0.995 | 0.373 | 0.476 | 0.498 | 0.467 | 0.593 | 1.05 | 0.341 | 0.456 | 1.34 | 0.296 | 0.585 | 0.386
ASGKFYAMKIL [AKT3_Y174_YF] | 1 | 1.05 | 0.763 | 0.858 | 0.519 | 0.625 | 0.609 | 0.589 | 0.543 | 1.07 | 0.529 | 0.53 | 0.801 | 0.509 | 0.675 | 0.426
DVLVEYQGEGR [GNS_Y416] | 0.907 | 0.818 | 0.606 | 0.945 | 0.427 | 0.533 | 0.545 | 0.599 | 0.43 | 1.08 | 0.504 | 0.496 | 0.934 | 0.414 | 0.709 | 0.464
GAAMLYFPSVS [GPR143_Y177_YF] | 0.871 | 0.895 | 0.503 | 0.613 | 0.465 | 0.423 | 0.66 | 0.736 | 0.437 | 0.764 | 0.445 | 0.512 | 1.36 | 0.732 | 0.535 | 0.56
QKPLGYFRVNL [GALE_Y104_D103G_YF] | 1.56 | 1.36 | 1.09 | 1.2 | 0.518 | 0.635 | 0.839 | 0.722 | 0.399 | 1.12 | 0.657 | 0.648 | 1.16 | 0.577 | 0.67 | 0.409
LVRAFYCERRW [CARD11_Y970_R975W] | 0.953 | 0.681 | 0.49 | 1.05 | 0.671 | 0.623 | 0.575 | 0.697 | 0.59 | 0.745 | 0.649 | 0.634 | 0.857 | 0.64 | 0.695 | 0.489
RREQDYTNLPS [CSF1R_Y923_R921Q] | 0.926 | 0.821 | 0.759 | 0.805 | 0.573 | 0.468 | 1.01 | 0.951 | 0.532 | 1.75 | 0.446 | 0.492 | 0.449 | 0.466 | 0.691 | 0.446
FQGRRYDCDCD [CRYGS_Y21] | 0.926 | 0.687 | 0.571 | 0.875 | 0.373 | 0.383 | 0.478 | 0.497 | 0.368 | 0.936 | 0.428 | 0.5 | 0.751 | 0.529 | 0.647 | 0.471
RAIGYYSATSK [FAM120A_Y328] | 1.24 | 1.16 | 1.83 | 0.765 | 0.622 | 0.515 | 0.438 | 0.453 | 0.563 | 0.631 | 0.502 | 0.37 | 0.73 | 1.17 | 0.639 | 0.593
RFLERYIYNRQ [HLA-DPB1_Y57_E62Q] | 0.919 | 1.2 | 0.699 | 1.01 | 1.04 | 0.907 | 0.854 | 0.805 | 0.655 | 1.06 | 0.813 | 0.786 | 0.796 | 0.732 | 0.811 | 0.768

Further lines, with some results ahead:

SH2 binding enrichment (Grb2 SH2) | SH2 binding enrichment (SHP2-C SH2) | SH2 binding enrichment (c-Src SH2) | Sequence | phosphorylation enrichment (AncSZ) | phosphorylation enrichment (EPHB1) | phosphorylation enrichment (EPHB2) | phosphorylation enrichment (FGFR1) | phosphorylation enrichment (FGFR3) | phosphorylation enrichment (Fer (mouse)) | phosphorylation enrichment (Fes) | phosphorylation enrichment (Fyn) | phosphorylation enrichment (Hck) | phosphorylation enrichment (Jak2) | phosphorylation enrichment (MERTK) | phosphorylation enrichment (c-Abl (mouse)) | phosphorylation enrichment (c-Src)
0.961 | 0.864 | 0.707 | TEAEPYYRSLR [NPHS1_Y1138] | 0.7 | 0.422 | 0.425 | 0.458 | 0.609 | 0.425 | 0.824 | 0.373 | 0.503 | 0.809 | 0.371 | 0.722 | 0.512
1.34 | 0.78 | 0.799 | MHYSNYVSKGS [PDGFRA_Y849_D846Y] | 0.617 | 0.412 | 0.472 | 0.421 | 0.397 | 0.458 | 0.533 | 0.424 | 0.478 | 0.467 | 0.526 | 0.432 | 0.495
0.897 | 0.956 | 0.77 | FRDALYKFMVD [PHEX_Y250_YF] | 1.15 | 0.768 | 0.602 | 0.626 | 0.962 | 0.676 | 1.37 | 0.525 | 0.559 | 1.23 | 0.763 | 0.834 | 0.582
0.752 | 0.551 | 0.355 | STEAIYWRYSK [SH3PXD2B_Y42_R43W] | 1.33 | 1.44 | 1.39 | 1.54 | 1.53 | 0.502 | 1.28 | 4.84 | 3.66 | 1.26 | 1.34 | 8.71 | 3.47
0.792 | 0.669 | 0.61 | AGIVVYNIIGW [MYH7_Y588_D587V] | 1.14 | 0.919 | 0.633 | 0.506 | 0.807 | 0.726 | 1.57 | 2.31 | 2.35 | 1.37 | 1.17 | 1.51 | 2.14
1.05 | 0.851 | 0.594 | TLKDVCDDGKY [RPS6KA3_Y483_Y483C] | 0.93 | 0.569 | 0.624 | 0.53 | 0.594 | 0.456 | 1.2 | 0.434 | 0.622 | 0.841 | 0.437 | 0.664 | 0.507
0.984 | 0.65 | 0.466 | EDDIIYTQDFM [STK11_Y362_T367M] | 1.49 | 0.697 | 0.746 | 0.911 | 1.25 | 0.776 | 1.31 | 1.03 | 0.992 | 1.21 | 0.784 | 0.889 | 1.1
0.93 | 0.578 | 0.909 | DTVRIYDDDFF [UBA1_Y560_E557V] | 1.28 | 0.777 | 0.626 | 0.602 | 0.642 | 0.619 | 1.24 | 0.555 | 0.538 | 1.27 | 0.592 | 0.726 | 0.522
1.44 | 0.832 | 0.764 | KLVDVYVNDAF [PGK1_Y161_G158V] | 0.895 | 0.575 | 0.5 | 0.635 | 0.626 | 0.496 | 0.81 | 0.574 | 0.554 | 0.661 | 0.425 | 0.387 | 0.435
0.811 | 0.557 | 0.563 | FDKPVYQKTTE [LDLR_Y828_N825K] | 0.684 | 0.452 | 0.475 | 0.518 | 0.57 | 0.451 | 0.739 | 0.472 | 0.436 | 0.691 | 0.473 | 0.606 | 0.506
0.62 | 0.58 | 0.325 | GLPINYTTRRI [LAMA2_Y2894] | 0.499 | 0.323 | 0.441 | 0.565 | 0.415 | 0.557 | 0.534 | 0.549 | 0.569 | 0.468 | 0.599 | 0.404 | 0.611
0.795 | 1.03 | 1.94 | PYADPYYDYEI [ZC3H18_Y371] | 4.79 | 5.6 | 4.58 | 20.2 | 19.8 | 6.03 | 2.33 | 6.02 | 3.13 | 2.75 | 4.93 | 1.16 | 8.11
1.28 | 1.01 | 0.942 | TSFSGYRFHRH [NKAPL_Y94_YF] | 0.558 | 0.429 | 0.471 | 0.44 | 0.677 | 0.384 | 0.788 | 0.472 | 0.515 | 0.546 | 0.452 | 0.601 | 0.579
